Assay results as given in patent publication US20230189818A1, “RNA-BASED CONTROL OF BOTRYTIS” (priority 2021, published 2023).

Columns and labels:
Botrytis cinerea conidia = assay: In vitro liquid-based assay (fungal biomass, 96-well plates, Cytation 5); type: cell-based; settings: co-incubated with conidia for three days, vs untreated control
How it was run: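 Conidia (5000/mL stock) were co-incubated with dsRNA or control treatments in pH 6.0 minimal medium. Incubation ran 72 h at 23 °C, shaking at 120 rpm under continuous light. Fungal biomass was measured by brightfield imaging (8 slices per well, 2.5× lens) and expressed as average reduction versus control.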

Botrytis = assay: Open-air field trial on strawberry (Example 4.1, AUDPC of % disease severity); type: in vivo, Botrytis cinerea; settings: FIG. 6
Experimental: RNAi compositions, each containing a dsRNA comprising a trigger sequence (GS349 or GS730) described herein were evaluated for ability to control botrytis on strawberry in open-air field trials. Non-formulated (dissolved in water) GS349 and GS730 were each tank mixed with water and the standard adjuvant Silwet L-77 0.1% v/v. GS349 was tested at concentrations of 25 grams of active ingredient per hectare (g ai/ha) and 50 g ai/ha and GS730 was tested at a concentration of 100 g ai/ha. Serenade ASO 85 g ai/ha, a standard biological fungicide, was used as a positive control. A second positive control group was treated with alternating applications of the chemical standards Teldor Plus 750 g ai/ha, Signum 600 g ai/ha, and Switch 500 g ai/ha. The trial also included an untreated group as a negative control.
Test compositions and positive controls were sprayed onto strawberry plants in 12 applications. Plants were observed beginning 14 days after the first application and disease progress was assessed by determining the percentage of surface area of fruit that was affected by the disease (% Disease Severity). Disease severity was plotted over the length of the trial observations and area under disease progress curve (AUDPC) was calculated in order to measure the cumulative effect of the various treatments across multiple assessments. Means were separated according to Fisher's LSD, alpha (p)≤0.05.

B. cinerea [1] = assay: Open-air field trial on snap bean (Example 4.3, AUDPC of % disease severity); type: in vivo, Botrytis cinerea; settings: Switch 525 g ai/ha, GS349 20 and 40, GS2280 10 and 40, GS2303 10, 20 and 40, GS2297 20 g ai/ha, FIG. 9
Experimental: RNAi compositions, each containing a dsRNA comprising a trigger sequence (GS349, GS2280, GS2303, or GS2297) described herein were evaluated for ability to control botrytis on snap bean in open-air filed trials. All test samples were formulated with RO water, propylene glycol, a linear alcohol ethoxylate, a lignosulfanate, sodium citrate dihydate, a polyacrylic acid polymer, two biocide compositions, anhydrous citric acid, and an antifoam, all of which are readily commercially available. Formulation samples were tank mixed with a standard adjuvant, the non-ionic surfactant, Activator 90 0.125%v/v. Compositions were tested at concentrations of 10, g ai/ha, 20 g ai/ha, and 40 g ai/ha. Positive controls were a chemical standard, Switch 525 g ai/ha and a biological standard, Double Nickel LC 9.4 I/ha, both of which were also tank mixed with Activator 90 0.125% v/v. As above, an untreated check was used as a negative control.
(§1) Compositions were applied to snap bean plants using a small plot sprayer delivering 50 gallons of water per acre. A total of three applications were used for each sample and positive control. Disease state was evaluated beginning 8 days after the first application and ending 37 days after the third and final application. Percent Disease Severity was assessed and AUDPC was calculated in the same manner as noted in Example 4.1.

B. cinerea [2] = assay: Open-air field trial on strawberry (Example 4.4, AUDPC of % disease severity); type: in vivo, Botrytis cinerea; settings: FIG. 10
Experimental: RNAi compositions, each containing a dsRNA comprising a trigger sequence (GS349) described herein were evaluated for ability to control botrytis on strawberry in open-air field trials. All test samples were formulated as described in Example 4.3 and were tank mixed with standard adjuvant, Activator 90 0.25% v/v. Compositions were tested at concentrations of 10, 20, 30, and 40 g ai/ha. A biological standard program of Regalia 470 g ai/ha and Stylet Oil 6800 g ai/ha was used as a positive control. A chemical standard program of Captan 2240 g ai/ha and Switch 525 g ai/ha was used for a second positive control. An untreated check group was used as a negative control.
as §1, with “strawberry” for “snap bean”, “Five” for “A total of three”, “made at weekly intervals.” for “used for each sample and positive control.”, “6” for “8”, “12” for “37”, “fifth” for “third”

B1: GS349: dsRNA trigger targeting B. cinerea CDC42 (XM_001545642.2); trigger SEQ ID NO 14, RNA 26, reverse complement 38 (nucleic acid, listed as Botrytis cinerea)
sense: GUUGUCUUGUCUCGCUCAAGCUUGUCCUGUCUGGUCACUUUUCUUUCUGCCUGAUAAUCCAGACCUCGAAAAUAACCAAAAGAUUGGAAAUCGUUUGCUCAUCUUGCAUGCAUUAUUACUUUCCUGGAUCAAUCUCAUUCAACUCGUUCUCGUGCAUUUCAUUCAACCUCAACCCCUACUUUCAGUCAAUUCAAUUUAAUUCAAUCAUUCAAAUCUUUCAUUUCGCACACUUCACAUUCAACCAUCCUCUCUCAAUCAAAUAUCACCACCUCUCUUAUCGAACGUCAUUUUGCAUACAAUCAAUUCCUACAGACCGAGCGCAACUCGAUACAACCAUCGAAUAACUUCUCACACUUGCUUGUUGAAUUGAUUACUGAAGAAAGUGGAUUUCAAAGACCGAUUUUCCCCCUAGAUAUUCAAGAACGGCUUAUUCUUGUCUCGAGACAAAAC
antisense: GUUUUGUCUCGAGACAAGAAUAAGCCGUUCUUGAAUAUCUAGGGGGAAAAUCGGUCUUUGAAAUCCACUUUCUUCAGUAAUCAAUUCAACAAGCAAGUGUGAGAAGUUAUUCGAUGGUUGUAUCGAGUUGCGCUCGGUCUGUAGGAAUUGAUUGUAUGCAAAAUGACGUUCGAUAAGAGAGGUGGUGAUAUUUGAUUGAGAGAGGAUGGUUGAAUGUGAAGUGUGCGAAAUGAAAGAUUUGAAUGAUUGAAUUAAAUUGAAUUGACUGAAAGUAGGGGUUGAGGUUGAAUGAAAUGCACGAGAACGAGUUGAAUGAGAUUGAUCCAGGAAAGUAAUAAUGCAUGCAAGAUGAGCAAACGAUUUCCAAUCUUUUGGUUAUUUUCGAGGUCUGGAUUAUCAGGCAGAAAGAAAAGUGACCAGACAGGACAAGCUUGAGCGAGACAAGACAAC
- Average % Reduction in Biomass (Botrytis cinerea conidia; 25 ppm dsRNA): 8%
- Average % Reduction in Biomass (Botrytis cinerea conidia; 150 ppm dsRNA): 25%
- Disease control compared with the biological standard (AUDPC) (Botrytis; 50 g/h ai, Serenade ASO 85 g ai/ha): significantly improved control
- Disease control compared with the chemical standard (AUDPC) (Botrytis; 50 g/h ai, alternating Teldor Plus, Signum, Switch): not significantly different
- Disease control compared with the biological standard, Serenade (AUDPC) (Botrytis; GS349 25 g ai/ha, GS730 100 g ai/ha, Serenade ASO 85 g ai/ha): not significantly different
- Control of Botrytis vs. the untreated control (AUDPC) (Botrytis; non-formulated, Silwet L-77 0.1% v/v, 12 applications, GS349 25 and 50 g ai/ha, GS730 100 g ai/ha): significant control
- Disease state compared to treatment with the chemical standard (AUDPC) (B. cinerea [1]): no significant difference
- Disease compared with the chemical standard program (AUDPC) (B. cinerea [2]; 10, 20, 30 and 40 g ai/ha, Captan 2240 g ai/ha and Switch 525 g ai/ha): no significant difference
- Disease compared with the biological standard program (AUDPC) (B. cinerea [2]; 10, 20, 30 and 40 g ai/ha, Regalia 470 g ai/ha and Stylet Oil 6800 g ai/ha): no significant difference
- Disease caused by B. cinerea vs untreated check (AUDPC) (B. cinerea [2]; formulated, Activator 90 0.25% v/v, 10, 20, 30 and 40 g ai/ha, five weekly applications): significantly reduced disease
